Drawing on paper PMC5941077, this text covers percent of the HA-tagged isoform coprecipitated on anti-FLAG beads for 1 substance.

The target of the assay is FLAG-tagged 3D7 CLAG3 protein (3D7 CLAG3.1 with tandem miniSOG-FLAG tag, TFLC3 parasite) (Plasmodium falciparum (3D7 line)) (UniProt O77310). Put plainly: co-IP; TFLC3 trophozoite-infected cell lysate in 50 mM Tris-HCl pH 7.4, 150 mM NaCl, 5 mM EDTA, 1% Triton X-100; anti-FLAG agarose beads, at least 2 h at 4°C; immunoblot probed with anti-HA; eluate compared with serial dilutions of the input. For orientation: Immunoblotting shows a protein as a band on a membrane.
Sequence of UniProt O77310 (O77310 25-1417): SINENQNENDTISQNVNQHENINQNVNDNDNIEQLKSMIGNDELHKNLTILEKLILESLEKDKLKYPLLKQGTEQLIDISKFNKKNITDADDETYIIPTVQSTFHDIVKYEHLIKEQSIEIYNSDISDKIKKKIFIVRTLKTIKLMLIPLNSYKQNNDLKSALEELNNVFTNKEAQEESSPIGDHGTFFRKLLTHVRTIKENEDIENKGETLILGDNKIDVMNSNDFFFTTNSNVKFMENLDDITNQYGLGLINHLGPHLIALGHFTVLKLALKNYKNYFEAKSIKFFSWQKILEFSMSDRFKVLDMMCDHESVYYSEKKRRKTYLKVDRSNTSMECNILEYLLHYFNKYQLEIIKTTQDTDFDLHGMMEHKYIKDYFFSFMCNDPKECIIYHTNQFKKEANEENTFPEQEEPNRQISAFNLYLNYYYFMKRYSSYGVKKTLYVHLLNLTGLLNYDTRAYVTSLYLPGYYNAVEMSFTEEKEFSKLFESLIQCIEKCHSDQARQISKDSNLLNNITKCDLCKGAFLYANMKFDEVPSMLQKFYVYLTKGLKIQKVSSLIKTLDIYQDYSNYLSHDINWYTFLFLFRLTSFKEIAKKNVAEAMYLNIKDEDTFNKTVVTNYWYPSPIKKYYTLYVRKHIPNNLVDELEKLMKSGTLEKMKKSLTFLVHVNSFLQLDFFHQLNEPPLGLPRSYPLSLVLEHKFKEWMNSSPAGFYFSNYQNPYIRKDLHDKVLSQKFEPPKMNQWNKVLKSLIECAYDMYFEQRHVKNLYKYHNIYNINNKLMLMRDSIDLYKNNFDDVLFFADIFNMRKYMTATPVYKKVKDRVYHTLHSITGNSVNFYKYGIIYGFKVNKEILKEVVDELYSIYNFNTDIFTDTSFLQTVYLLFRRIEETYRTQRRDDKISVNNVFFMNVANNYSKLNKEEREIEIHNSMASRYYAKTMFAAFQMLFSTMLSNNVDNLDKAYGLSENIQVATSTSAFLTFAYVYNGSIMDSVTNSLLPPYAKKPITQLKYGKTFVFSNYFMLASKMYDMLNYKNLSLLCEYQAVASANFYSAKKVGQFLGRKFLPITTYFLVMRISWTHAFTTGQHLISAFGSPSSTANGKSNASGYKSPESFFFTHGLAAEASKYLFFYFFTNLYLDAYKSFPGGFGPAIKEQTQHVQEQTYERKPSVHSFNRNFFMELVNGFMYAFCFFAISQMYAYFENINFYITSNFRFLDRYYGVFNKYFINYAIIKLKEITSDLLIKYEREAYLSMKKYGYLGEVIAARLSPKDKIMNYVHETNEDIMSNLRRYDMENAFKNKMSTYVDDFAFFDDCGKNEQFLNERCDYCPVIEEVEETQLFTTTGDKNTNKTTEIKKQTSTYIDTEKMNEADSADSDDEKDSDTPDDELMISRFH

Regarding “HA-tagged Dd2 CLAG3 protein (TFLC3 parasite) (natural protein)”, the percent of the HA-tagged isoform coprecipitated on anti-FLAG beads is 1 to 10%.
